These results are taken from article PMC6211539, “Structures of collagen IV globular domains: insight into associated pathologies, folding and network assembly” (IUCrJ, 2018).

B2: noncollagenous C-terminal domain (NC1) of the collagen IV α1 chain, recombinant (domain or fragment, human)
chain: SVDHGFLVTRHSQTIDDPQCPSGTKILYHGYSLLYVQGNERAHGQDLGTAGSCLRKFSTMPFLFCNINNVCNFASRNDYSYWLSTPEPMPMSMAPITGENIRPFISRCAVCEAPAMVMAVHSQTIQIPPCPSGWSSLWIGYSFVMHTSAGAEGSGQALASPGSCLEEFRSAPFIECHGRGTCNYYANAYSFWLATIERSEMFKKPTPSTLKAGELRTHVSRCQVCMRRT
notes: collagen IV α1 chain, human, NC1 domain (about 230 C-terminal residues); The construct has an N-terminal BM40 secretion peptide followed by the FLAG tag; also called α1NC1; α1(IV)NC1
B3: noncollagenous C-terminal domain (NC1) of the collagen IV α2 chain, recombinant, from insect cells (domain or fragment, human)
chain: SVSIGYLLVKHSQTDQEPMCPVGMNKLWSGYSLLYFEGQEKAHNQDLGLAGSCLARFSTMPFLYCNPGDVCYYASRNDKSYWLSTTAPLPMMPVAEDEIKPYISRCSVCEAPAIAIAVHSQDVSIPHCPAGWRSLWIGYSFLMHTAAGDEGGGQSLVSPGSCLEDFRATPFIECNGGRGTCHYYANKYSFWLTTIPEQSFQGSPSADTLKAGLIRTHISRCQVCMKNL
notes: collagen IV α2 chain, human, NC1 domain; The construct has an N-terminal BM40 secretion peptide followed by the FLAG tag; Used for the α121NC1 crystals (expressed in insect cells); also called α2NC1; α2(IV)NC1

In data set [1] the target is noncollagenous C-terminal domain (NC1) of the collagen IV α4 chain, recombinant (human) (UniProt P53420). The data set is described as follows: crystal structure; α4NC1 alone; sitting drop, 21°C; protein in 50 mM Tris-HCl pH 7.4, 0.15 M NaCl; 6% PEG 3350, 0.2 M Na acetate, 0.1 M MES pH 6.5.
The target of data set [2] is noncollagenous C-terminal domain (NC1) of the collagen IV α3 chain, recombinant (human) (UniProt Q01955). The data set is described as follows: SPR; Biacore T100; α3NC1 or α5NC1 amine-coupled to CM5 chip (~1000 RU); α3NC1 or α5NC1 flowed over; 25°C; 10 mM Tris-HCl pH 7.4, 0.15 M NaCl, 3 mM EDTA, 0.005% surfactant P20; self-association. A general note: In SPR one partner is held on a chip, and binding of the other changes the refractive index at the surface.

The target is the same in data set [3]. The data set is described as follows: crystal structure; α3NC1 alone; sitting drop, 21°C; protein in 50 mM Tris-HCl pH 7.4, 0.5 M NaCl; 16% PEG 3350, 0.2 M MgCl2, 0.1 M bis-tris propane pH 7.5.
Data set [4] deals with the molecule itself. The data set is described as follows: SPR; Biacore T100; α3NC1 or α5NC1 amine-coupled to CM5 chip (~1000 RU); α3NC1 or α5NC1 flowed over; 25°C; 10 mM Tris-HCl pH 7.4, 0.15 M NaCl, 3 mM EDTA, 0.005% surfactant P20; self-association.
Data set [5] concerns the molecule itself. Briefly: crystal structure; crystals from a 1:1:1 mixture of α3NC1, α4NC1 and α5NC1; sitting drop, 21°C; protein in 50 mM Tris-HCl pH 7.4, 0.15 M NaCl; 20% PEG 8000, 0.2 M NaCl, 0.1 M CAPS pH 10.5.
In data set [6] the target is B3. The data set is described as follows: crystal structure; 2:1 mixture (in terms of mass) of α1NC1 and α2NC1; sitting drop, 21°C; protein in 50 mM Tris-HCl pH 7.4, 0.15 M NaCl; 10% PEG 8000, 0.2 M Mg acetate. Particulars: both partners purified.
Data set [7] deals with the molecule itself. Briefly: crystal structure; α1NC1 alone; sitting drop, 21°C; protein in 50 mM Tris-HCl pH 7.4, 0.15 M NaCl; 1.4 M Li2SO4, 0.1 M MES pH 6.5.
Data set [8] deals with B2. Briefly: crystal structure; 2:1 mixture (in terms of mass) of α1NC1 and α2NC1; sitting drop, 21°C; protein in 50 mM Tris-HCl pH 7.4, 0.15 M NaCl; 10% PEG 8000, 0.2 M Mg acetate. The conditions noted are these: both partners purified.
Data set [9] concerns the molecule itself. The data set is described as follows: crystal structure; α2NC1 (from HEK293 cells) alone; sitting drop, 21°C; protein in 50 mM Tris-HCl pH 7.4, 0.15 M NaCl; 22% polyvinylpyrrolidone K15, 0.1 M Na2SO4, 0.1 M MES pH 6.5.

Where “and” joins values, the source holds several entries; their conditions need not be identical. Equal values may be shown once.

As for “noncollagenous C-terminal domain (NC1) of the collagen IV α4 chain, recombinant (from UniProt P53420 1461-1690) (domain or fragment)”, the stoichiometry N in data set [1] turned out to be 12 subunits.
For “noncollagenous C-terminal domain (NC1) of the collagen IV α3 chain, recombinant (from UniProt Q01955 1441-1670) (domain or fragment)”, the equilibrium dissociation constant (Kd) in data set [2] came to 1.71 µM. Also, the stoichiometry N in data set [3] amounted to 6 subunits.

B1: noncollagenous C-terminal domain (NC1) of the collagen IV α5 chain, recombinant (domain or fragment, human)
chain: SVAHGFLITRHSQTTDAPQCPQGTLQVYEGFSLLYVQGNKRAHGQDLGTAGSCLRRFSTMPFMFCNINNVCNFASRNDYSYWLSTPEPMPMSMQPLKGQSIQPFISRCAVCEAPAVVIAVHSQTIQIPHCPQGWDSLWIGYSFMMHTSAGAEGSGQALASPGSCLEEFRSAPFIECHGRGTCNYYANSYSFWLATVDVSDMFSKPQSETLKAGDLRTRISRCQVCMKRT
notes: collagen IV α5 chain, human, NC1 domain; The construct has an N-terminal BM40 secretion peptide followed by the FLAG tag; also called α5NC1; α5(IV)NC1
The molecule B1 had a Kd in data set [4] of 4.92 µM. In addition, in data set [5], the “stoichiometry N” value amounted to 6 subunits.
In the case of B2, the “stoichiometry N” value in data set [6] was 2 α1NC1 per α2NC1; in [7], 6 subunits.
As to B3, in data set [8], the binding result was “binds”.

B4: noncollagenous C-terminal domain (NC1) of the collagen IV α2 chain, recombinant, from HEK293 cells (domain or fragment, human)
chain: SVSIGYLLVKHSQTDQEPMCPVGMNKLWSGYSLLYFEGQEKAHNQDLGLAGSCLARFSTMPFLYCNPGDVCYYASRNDKSYWLSTTAPLPMMPVAEDEIKPYISRCSVCEAPAIAIAVHSQDVSIPHCPAGWRSLWIGYSFLMHTAAGDEGGGQSLVSPGSCLEDFRATPFIECNGGRGTCHYYANKYSFWLTTIPEQSFQGSPSADTLKAGLIRTHISRCQVCMKNL
notes: collagen IV α2 chain, human, NC1 domain; N-terminally FLAG-tagged fusion protein; Used for the α2NC1 crystals; also called α2NC1; α2NC1_(homo); source: HEK293 cells, purified as described elsewhere (Sado et al., 1998)
For B4, in [9], the “stoichiometry N” value was 8 subunits and 4 subunits.

The term stoichiometry N denotes a count of units in the complex or per binding partner. As a reminder, the Kd is the constant that tells how readily two partners part at equilibrium.
